These results are taken from article PMC5749160, “Disruption of an RNA-binding hinge region abolishes LHP1-mediated epigenetic repression”.

What all share (settings): protein: recombinant; tags: N-terminal GST (pGEX-4T-1); label: 5' Cy5; single-stranded
One data set concerns the target T1, GST-LHP1 W129C (Arabidopsis thaliana (Col-0 cDNA), UniProt Q946J8 1-445, W129C).
T1 sequence: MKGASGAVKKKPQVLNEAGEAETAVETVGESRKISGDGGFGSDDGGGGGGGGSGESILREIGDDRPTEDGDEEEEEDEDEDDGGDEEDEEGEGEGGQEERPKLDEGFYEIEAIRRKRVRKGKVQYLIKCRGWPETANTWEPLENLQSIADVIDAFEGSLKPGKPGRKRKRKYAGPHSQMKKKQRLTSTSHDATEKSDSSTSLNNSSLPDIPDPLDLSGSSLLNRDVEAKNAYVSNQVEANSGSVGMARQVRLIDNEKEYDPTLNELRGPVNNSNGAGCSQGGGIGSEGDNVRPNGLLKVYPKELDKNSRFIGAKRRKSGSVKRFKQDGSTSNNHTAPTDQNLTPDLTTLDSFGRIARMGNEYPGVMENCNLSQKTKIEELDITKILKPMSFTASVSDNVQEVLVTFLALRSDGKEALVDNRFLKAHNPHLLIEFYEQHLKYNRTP
As to the kind of experiment: EMSA; wild-type RNA-binding activity retained; EMSA: 20 mM HEPES-KOH pH 7.5, 100 mM KCl, 0.05% NP-40, 10 nM Cy5 probe (1 uL of 100 nM + 9 uL protein), 30 min room temperature; 1.6% TBE-agarose gel. In general terms: In EMSA bound probe runs differently from free probe, usually more slowly.

The target in the next data set is T2, GST-LHP1 KR23A (Arabidopsis thaliana (Col-0 cDNA), UniProt Q946J8 1-445, R166A;K167A;R168A;K169A;R170A;K171A;K180A;K181A;K182A;R184A;K195A;R292A;K298A;K3 …).
T2 sequence: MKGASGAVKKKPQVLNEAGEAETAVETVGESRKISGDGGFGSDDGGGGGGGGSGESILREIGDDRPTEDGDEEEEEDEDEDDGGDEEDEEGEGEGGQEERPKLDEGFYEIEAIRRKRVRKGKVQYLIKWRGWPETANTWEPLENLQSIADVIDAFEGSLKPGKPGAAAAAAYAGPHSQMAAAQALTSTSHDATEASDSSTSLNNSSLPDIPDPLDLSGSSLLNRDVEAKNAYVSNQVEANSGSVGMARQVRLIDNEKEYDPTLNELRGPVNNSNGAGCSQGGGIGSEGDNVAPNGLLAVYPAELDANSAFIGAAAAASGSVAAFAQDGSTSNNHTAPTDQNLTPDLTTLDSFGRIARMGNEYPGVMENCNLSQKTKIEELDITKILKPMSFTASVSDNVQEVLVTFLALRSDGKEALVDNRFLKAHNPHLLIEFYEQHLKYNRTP
As to the kind of experiment: EMSA; EMSA: 20 mM HEPES-KOH pH 7.5, 100 mM KCl, 0.05% NP-40, 10 nM Cy5 probe (1 uL of 100 nM + 9 uL protein), 30 min room temperature; 1.6% TBE-agarose gel.

The next data set deals with T3, GST-LHP1 KR33A (Arabidopsis thaliana (Col-0 cDNA), UniProt Q946J8 1-445, R166A;K167A;R168A;K169A;R170A;K171A;K180A;K181A;K182A;R184A;K195A;R224A;K229A;R2 …).
T3 sequence: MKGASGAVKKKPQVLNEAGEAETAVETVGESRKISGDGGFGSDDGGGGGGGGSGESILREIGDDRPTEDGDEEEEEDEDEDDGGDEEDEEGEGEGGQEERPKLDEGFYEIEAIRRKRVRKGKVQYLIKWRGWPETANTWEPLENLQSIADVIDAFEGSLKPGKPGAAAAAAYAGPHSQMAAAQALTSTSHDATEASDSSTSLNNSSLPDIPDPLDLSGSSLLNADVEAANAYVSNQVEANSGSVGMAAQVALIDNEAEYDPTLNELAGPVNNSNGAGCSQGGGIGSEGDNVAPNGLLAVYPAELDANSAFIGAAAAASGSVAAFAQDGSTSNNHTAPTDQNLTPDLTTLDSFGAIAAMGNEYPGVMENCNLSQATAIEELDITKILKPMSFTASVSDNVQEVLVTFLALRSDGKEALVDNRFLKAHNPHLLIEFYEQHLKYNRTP
The description is as above.

In the case of CUCCUCCGGCGAUAAGUACGCCUUUUCCUUACCUGGGUUU (ssRNA) [FLC 40-nt ssRNA], the figures for the binding result with GST-LHP1 W129C, with GST-LHP1 KR23A and with GST-LHP1 KR33A were “binds”, “no binding” and “no binding”, respectively.
